Measured values: patent publication US20230380451A1, “MEANS AND METHODS TO DETOXIFY MYCOTOXINS” (priority 2020, published 2023)
Where a chain is given by its changes, count along the chain named.

B1: Akr II: artificial amino acid sequence, variant of a wild type aldo-keto reductase (protein)
chain: MRTTEIAQGLKVSNLCIGAGPLGGMPTAFGYDVSEERGIATVQAVFDSPINFMDTSSEYGGSEARIGKVIREGLMPKGFVISSKADAEGEGVGRRGDFSAKQVRASFELSLERLGLTHLDVYFLHDPEKFPFEQVMARGGAMEELLRLKDEGLVGLVGVAGGDVLEMARYVDTGSLDILLNYGRYTLLDRSADSLITKVSDAGMAFLNAGPYASGLLAAPRGGSAWYQYAPPDATALQAVDQLHELCESFDVSLRSVALQFSMRDPRITSTVVGLSRPERVRALLDDEAAEIPAELWEQLPAPLNGDIVLPG
modifications: ArkII
B2: Akr III: artificial amino acid sequence, variant of a wild type aldo-keto reductase (protein)
chain: B1 chain with L74R, L187I, G312R
modifications: ArkIII

Assay: Storage stability at different pH values, residual DON transformation activity
Format: biochemical
Settings: storage at 30° C.
Experimental: To determine the transformation of DON to epi-THS by Akr I-III, described herein, the following assay was performed. An assay buffer was prepared containing 40 ppm DON, 1 mM NADPH in Teorell Stenhagen (TS) buffer, pH 6.0 (Östling and Virtama, Acta Physiologica Scandinavica, 1946, 11:4, 289-293). Tubes containing the assay buffer were transferred in a heating block at 30° C. The reaction was started by addition of Akr I-III to a final concentration of 200 nM in a final reaction volume of 200 μL. Samples were taken before reaction start, and 2, 5, 10, 15 and 20 min after reaction start. DON transformation reactions in these samples were stopped by mixing with absolute methanol at a 1:2 ratio, followed by a 1:100 dilution with 40% methanol. The concentrations of DON and epi-THS in the samples were determined with liquid chromatography-mass spectrometry (LC-MS) on a Sciex 5500 triple quadrupole mass spectrometer coupled to Agilent 1290 series UHPLC system, using the following MS parameters: Acquisition duration: 4 min; Scan Type: MRM (MRM); Polarity: Negative; Ion Source: Turbo Spray.
The storage stability of Akr I-III at different pH values was tested by incubating 1 μM enzyme in TS buffer solutions with a pH of 3.0-10.0 for 4 h at 30° C. in standard 1.5 ml Eppendorf tubes. Every hour, a DON transformation assay was conducted as described in Example 3. The starting activity at time 0 min was set to 100% and the relative residual activities were determined throughout the incubation. For the DON transformation assays, 80 μl of the storage solution were added to an assay reaction with a final volume of 400 μl, which corresponds to a 1:5 dilution of the storage solution. Akr I retained more than 93% activity during 4 hours at 30° C. from pH 4.0-10.0. Akr II retained 30% to 93% activity during 4 hours at 30° C. from pH […] retained 27% to 85% activity during 4 hours at 30° C. from pH 4.0-9.0. Akr I-III retained more than 40% of their activity for 4 hours at 30° C. from pH 4.0 to pH 8.0.

[1] = pH 3.0, 0 h (starting activity set to 100%)
[2] = pH 4.0, 0 h (starting activity set to 100%)
[3] = pH 5.0, 0 h (starting activity set to 100%)
[4] = pH 6.0, 0 h (starting activity set to 100%)
[5] = pH 7.0.0, 0 h (starting activity set to 100%)
[6] = pH 8.0, 0 h (starting activity set to 100%)
[7] = pH 9.0.0, 0 h (starting activity set to 100%)
[8] = pH 10.0, 0 h (starting activity set to 100%)

Molecule	Relative DON-transformation activity [1] [%]	Relative DON-transformation activity (pH 3.0, 1 h) [%]	Relative DON-transformation activity (pH 3.0, 2 h) [%]	Relative DON-transformation activity (pH 3.0, 3 h) [%]	Relative DON-transformation activity (pH 3.0, 4 h) [%]	Relative DON-transformation activity [2] [%]	Relative DON-transformation activity (pH 4.0, 1 h) [%]	Relative DON-transformation activity (pH 4.0, 2 h) [%]	Relative DON-transformation activity (pH 4.0, 3 h) [%]	Relative DON-transformation activity (pH 4.0, 4 h) [%]	Relative DON-transformation activity [3] [%]	Relative DON-transformation activity (pH 5.0, 1 h) [%]	Relative DON-transformation activity (pH 5.0, 2 h) [%]	Relative DON-transformation activity (pH 5.0, 3 h) [%]	Relative DON-transformation activity (pH 5.0, 4 h) [%]	Relative DON-transformation activity [4] [%]	Relative DON-transformation activity (pH 6.0, 1 h) [%]	Relative DON-transformation activity (pH 6.0, 2 h) [%]	Relative DON-transformation activity (pH 6.0, 3 h) [%]	Relative DON-transformation activity (pH 6.0, 4 h) [%]	further results
B1	100.0	34.5	1.1	0.0	0.0	100.0	99.3	96.6	87.1	89.0	100.0	100.1	99.8	99.3	92.4	100.0	77.3	85.1	77.6	61.8	Relative DON-transformation activity [5]: 100.0%; Relative DON-transformation activity (pH 7.0.0, 1 h): 79.6%; Relative DON-transformation activity (pH 7.0.0, 2 h): 64.5%; Relative DON-transformation activity (pH 7.0.0, 3 h): 56.9%; Relative DON-transformation activity (pH 7.0.0, 4 h): 57.4%; Relative DON-transformation activity [6]: 100.0%; Relative DON-transformation activity (pH 8.0, 1 h): 85.1%; Relative DON-transformation activity (pH 8.0, 2 h): 68.3%; Relative DON-transformation activity (pH 8.0, 3 h): 53.2%; Relative DON-transformation activity (pH 8.0, 4 h): 40.9%; Relative DON-transformation activity [7]: 100.0%; Relative DON-transformation activity (pH 9.0.0, 1 h): 76.5%; Relative DON-transformation activity (pH 9.0.0, 2 h): 54.7%; Relative DON-transformation activity (pH 9.0.0, 3 h): 36.1%; Relative DON-transformation activity (pH 9.0.0, 4 h): 29.9%; Relative DON-transformation activity [8]: 100.0%; Relative DON-transformation activity (pH 10.0, 1 h): 54.4%; Relative DON-transformation activity (pH 10.0, 2 h): 37.7%; Relative DON-transformation activity (pH 10.0, 3 h): 13.9%; Relative DON-transformation activity (pH 10.0, 4 h): 7.2%
B2	100.0	13.5	19.3	0.0	0.0	100.0	95.1	84.4	74.8	57.7	100.0	97.7	96.3	90.7	85.2	100.0	97.8	94.9	93.1	78.9	Relative DON-transformation activity [5]: 100.0%; Relative DON-transformation activity (pH 7.0.0, 1 h): 93.0%; Relative DON-transformation activity (pH 7.0.0, 2 h): 91.3%; Relative DON-transformation activity (pH 7.0.0, 3 h): 85.1%; Relative DON-transformation activity (pH 7.0.0, 4 h): 74.0%; Relative DON-transformation activity [6]: 100.0%; Relative DON-transformation activity (pH 8.0, 1 h): 94.2%; Relative DON-transformation activity (pH 8.0, 2 h): 77.9%; Relative DON-transformation activity (pH 8.0, 3 h): 69.0%; Relative DON-transformation activity (pH 8.0, 4 h): 57.6%; Relative DON-transformation activity [7]: 100.0%; Relative DON-transformation activity (pH 9.0.0, 1 h): 76.3%; Relative DON-transformation activity (pH 9.0.0, 2 h): 61.3%; Relative DON-transformation activity (pH 9.0.0, 3 h): 54.1%; Relative DON-transformation activity (pH 9.0.0, 4 h): 27.4%; Relative DON-transformation activity [8]: 100.0%; Relative DON-transformation activity (pH 10.0, 1 h): 47.0%; Relative DON-transformation activity (pH 10.0, 2 h): 27.1%; Relative DON-transformation activity (pH 10.0, 3 h): 17.0%; Relative DON-transformation activity (pH 10.0, 4 h): 15.4%
